Test results taken from patent publication US20060172377.

What was measured:
[1] = test system: T1, SF370.1 recombinase (Streptococcus pyogenes phage SF370.1); test: cell_activity; conditions: integration of attP (N3) plasmid at pseudo attB; 9 clones without recombinase; 35 of 100 rescued at this site
T1 sequence: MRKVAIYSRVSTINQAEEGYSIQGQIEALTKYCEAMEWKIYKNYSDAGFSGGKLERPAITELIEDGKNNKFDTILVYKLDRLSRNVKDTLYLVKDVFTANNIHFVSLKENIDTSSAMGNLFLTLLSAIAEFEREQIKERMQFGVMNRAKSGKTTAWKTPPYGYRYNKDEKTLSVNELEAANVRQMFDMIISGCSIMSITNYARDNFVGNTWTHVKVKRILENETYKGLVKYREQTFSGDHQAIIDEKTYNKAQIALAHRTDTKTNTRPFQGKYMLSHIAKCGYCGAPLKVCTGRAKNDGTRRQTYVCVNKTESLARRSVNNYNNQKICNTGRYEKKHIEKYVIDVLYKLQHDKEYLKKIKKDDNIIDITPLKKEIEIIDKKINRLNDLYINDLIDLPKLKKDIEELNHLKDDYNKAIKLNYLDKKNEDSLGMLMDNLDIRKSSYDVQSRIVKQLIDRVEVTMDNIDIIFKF

[2] = molecular target: T2, SPβc2 recombinase (yokA) (Bacillus subtilis phage SPβc2) (UniProt O32006); test: cell_activity; conditions: integration of attP (N1) plasmid at pseudo attB; 0 clones without recombinase; 15 integrations at this site
T2 sequence: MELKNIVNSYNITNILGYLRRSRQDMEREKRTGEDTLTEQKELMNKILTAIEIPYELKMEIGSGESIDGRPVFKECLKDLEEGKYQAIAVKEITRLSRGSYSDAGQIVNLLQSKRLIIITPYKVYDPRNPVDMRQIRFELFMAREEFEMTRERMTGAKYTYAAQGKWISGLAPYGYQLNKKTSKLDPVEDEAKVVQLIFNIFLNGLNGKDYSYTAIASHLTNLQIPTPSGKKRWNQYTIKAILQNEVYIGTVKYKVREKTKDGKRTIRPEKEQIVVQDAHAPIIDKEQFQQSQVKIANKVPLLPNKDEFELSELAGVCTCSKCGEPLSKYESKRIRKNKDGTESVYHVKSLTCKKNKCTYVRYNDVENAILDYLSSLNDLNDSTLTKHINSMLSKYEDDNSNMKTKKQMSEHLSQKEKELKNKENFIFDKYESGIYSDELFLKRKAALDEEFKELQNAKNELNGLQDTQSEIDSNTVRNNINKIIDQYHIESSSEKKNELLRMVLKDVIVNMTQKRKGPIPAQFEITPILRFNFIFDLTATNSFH

Substance | activity (hygromycinR clones) [1] | activity (hygromycinR clones) [2]
SF370.1 human pseudo attB | > 100 | –
SPβc2 human pseudo attB | – | > 100
